Literature values, collected in article PMC5156371.
pKd: −log10 of the molar value. “And” between values parts separate entries of the source, which are not always exact repeats. Equal values may be shown once. Read-outs that look alike come from different tables or passages of the source.

Tests used:
[1] = target: MyD88 TIR (Homo sapiens) (UniProt Q99836)
[2] = target: MAL TIR (Homo sapiens) (UniProt P58753)
[3] = target: MyD88 TIR (Homo sapiens) (UniProt Q99836); remark: listed apart in the source
[4] = target: MAL TIR (Homo sapiens) (UniProt P58753); remark: listed apart in the source

## A46 1-229 (from UniProt P26672)
[1]
  pKd: 6.34 and 6.28
[2]
  pKd: 5.84 and 5.81

## A46 87-229 (from UniProt P26672)
[3]
  pKd: 6.05 and 5.91
[4]
  pKd: 5.64 and 5.65
